IntAct's records for PubMed 21965663

target: dyr1a_mouse Dyrk1a (UniProt Q61214)

Calcipressin-1 (Homo sapiens), P53805-2 S112A;T192A, sequence (P53805 other isoform, or with tags, fused parts or gaps S112A;T192A): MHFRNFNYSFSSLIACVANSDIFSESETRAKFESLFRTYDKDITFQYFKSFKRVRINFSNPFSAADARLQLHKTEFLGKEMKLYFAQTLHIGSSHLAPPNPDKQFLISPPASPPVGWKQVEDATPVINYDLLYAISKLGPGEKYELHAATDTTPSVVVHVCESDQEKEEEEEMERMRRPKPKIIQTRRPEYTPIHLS
Calcipressin-1 (Homo sapiens), P53805-2 S112A, sequence (P53805 other isoform, or with tags, fused parts or gaps S112A): as the sequence (P53805 other isoform, or with tags, fused parts or gaps S112A;T192A) above
Calcipressin-1 (Homo sapiens), P53805-2 T192A, sequence (P53805 other isoform, or with tags, fused parts or gaps T192A): as the sequence (P53805 other isoform, or with tags, fused parts or gaps S112A;T192A) above

Row | Substance | effect of a mutation on the interaction
1 | Calcipressin-1 (Homo sapiens), P53805-2 S112A | decreasing interaction
2 | Calcipressin-1 (Homo sapiens), P53805-2 S112A;T192A | disrupting interaction
3 | Calcipressin-1 (Homo sapiens), P53805-2 T192A | decreasing interaction
